Numbering of substitutions follows the chain as printed.
B1: Antibody 8 (antibody, V domains shown)
VH: QVQLQQSGPGLVKPSQTLSLTCVISGDTVSSNRATWNWMRQSPLRGLEWLGRTYYRSKWYNDYAVSVKSRVVINPDTSKNQVSLQLNTVTPDDSGVYFCARGGHITVFGVNIDAFDIWGLGTKVTVSS
VL: DIQMTQSPSSLSASVGDRVTISCRASQRLNSYLHWYQQTPGQAPKLLIYATSTLQSGVSPRFSGSGSGTDFTLTISSLQPEDVATYYCQLSRTFGHGTKVEIK
B2: Antibody 5 (antibody, V domains shown)
VH: QVQLQQSGPGLVKPSQTLSLTCAISGDRVSSNSAVWNWIRQSPSRGLEWLGRTYYRSKWYYDYAESVKSRIVIDPDTSKNQVSLQLNSVTPEDSAIYYCARGGHITVFGLNIDAYDIWGQGAMVTVSS
VL: DIQMTQSPSSLSASVGDRVTISCRAQSLSSYLHWYQQKPGQPPKLLIYAATTLQSGVPSRFSGSGSGTDFTLTISTFQAEDVATYYCQQSRTFGQGTKVEIK
B3: Antibody 6 (antibody, V domains shown)
VH: B2 VH with V107E
VL: B2 VL
B4: Antibody 10 (antibody, V domains shown)
VH: QVQLQQSGPGLVKPSQTLSLTCAISGDSVSSNSATWNWIRQSPSRGLEWLGRTYYRSKWYNDYADFLKRRITINPDTSNNEVSLRLTSVTPDDTALYYCARGGHITVFGVNIDAFDVWGQGTMVTVSS
VL: DIQMTQSPSSLSASVGDRITISCRTSQSLRSYLHWYQQKPGKAPKLLIYASSTLQSGVPSRFSGSGSGTDFTLTISNLQPEDFATYYCQLSRTFGQGTKVEIK

What follows are binders tested against recombinant HA subtype H2 (A/Swine/MO/06 (H2N3)) (influenza A virus) (assay: ELISA, rHA coated).
In the case of B1, the EC50 is reported as 0.058 µg/mL. Binder B2 has an EC50 of 0.048 µg/mL. B3 was tested, and the EC50 was 0.213 µg/mL. B4 was tested, and the EC50 was 0.075 µg/mL.

These binders were tested against recombinant HA subtype H5 (A/Vietnam/1203/04 (H5N1)) (influenza A virus) (assay: ELISA, rHA coated).
B1 gave an EC50 of 0.044 µg/mL. B2 gave an EC50 of 0.041 µg/mL. B3 was tested, and the EC50 was 0.256 µg/mL. B4 showed an EC50 of 0.058 µg/mL.

What follows are binders tested against recombinant HA subtype H7 (A/Netherlands/219/03 (H7N7)) (influenza A virus) (assay: ELISA, rHA coated).
Binder B1 has an EC50 of 0.015 µg/mL. B2 was tested, and the EC50 was 0.024 µg/mL. B3 was tested, and the EC50 was 0.116 µg/mL. B4 gave an EC50 of 0.034 µg/mL.

The binders below were run against recombinant HA subtype H6 (A/teal/HK/W312/97 (H6N1)) (influenza A virus) (assay: ELISA, rHA coated).
B1 was tested, and the EC50 was 0.091 µg/mL. In the case of B2, the EC50 is reported as 0.047 µg/mL. With B3 the EC50 was 0.214 µg/mL. B4 showed an EC50 of 0.097 µg/mL.

The binders below were run against recombinant HA subtype H3 (A/Perth/16/09 (H3N2)) (influenza A virus) (assay: ELISA, rHA coated).
For B1, the EC50 was 0.067 µg/mL. Binder B2 has an EC50 of 0.03 µg/mL. B3 showed an EC50 of 0.064 µg/mL. For B4, the EC50 was 0.049 µg/mL.

What follows are binders tested against recombinant HA subtype H9 (A/chicken/HK/G9/97 (H9N2)) (influenza A virus) (assay: ELISA, rHA coated).
In the case of B1, the EC50 is reported as > 6 µg/mL. In the case of B2, the EC50 is reported as > 6 µg/mL. For B3, the EC50 was > 6 µg/mL. With B4 the EC50 was 2.7 µg/mL.
